Assay results taken from the DeepSol protein solubility set.

Assay: soluble on expression in E. coli; label from the status in PepcDB or PDB records

| Sequence | soluble on expression in E. coli |
| --- | --- |
| MGSDKIHHHHHHMVKWYKTYLEVYGKSFDEISDDSIRKVKRQLKERQNDSPLVSVVLIAHNEERHLISCIWSLSENHCHFPIEIIAVNNNSTDKTEEILKSLGVTYYNETKKGPGYARQCGLDHAKGKYHICIDADTLYPPHYIETHVKYLMNPKVACTFSLWSFMVDERHSRFGLWCYEGLRDIYLRLQAIQRPELCVRGMAFSFNTEIGRRFGFRTDIIRGEDGSLALAMKPYGKIVFITSRKARVLTSNGTLNSEGSLIDNIWIRVIKALKEITGLFIKKTAYKDKDSNLIK | not soluble |
| MSLSSLLIDLKGKELEQEEVELLSHPLVAGLILFTRNFENREQIQELIRSVRQRVKKPLLITVDQEGGRVQRFRDGFTMLPSMQAFQETLSATEQVSFAKEAGWQMAAEMIALDIDLSFAPVLDLGHECRAIGDRSFSSDVKSAVNLATAFIDGMHQAGMASTGKHFPGHGHVLADSHLETPYDDRTKEEIFSGDLQPFQQLISQNKLDAIMPAHVIYSQCDSQPASGSKYWLKEILRKKLNFQGTIFSDDLGMKGAGVMGNFVERSKKALNAGCDLLLLCNEREGVIQVLDNLKLTENQPHFMARQARLQSLFKRRVINWNDLISDQRWRLNYQKLADIQSRWLDIQAAKNDEGGSHHHHHH | soluble |
| MHHHHHHSSGRENLYFQGSEREASRLDKFKQLLAGPNTDLEELRRLSWSGIPKPVRPMTWKLLSGYLPANVDRRPATLQRKQKEYFAFIEHYYDSRNDEVHQDTYRQIHIDIPRMSPEALILQPKVTEIFERILFIWAIRHPASGYVQGINDLVTPFFVVFICEYIEAEEVDTVDVSGVPAEVLCNIEADTYWCMSKLLDGIQDNYTFAQPGIQMKVKMLEELVSRIDEQVHRHLDQHEVRYLQFAFRWMNNLLMREVPLRCTIRLWDTYQSEPDGFSHFHLYVCAAFLVRWRKEILEEKDFQELLLFLQNLPTAHWDDEDISLLLAEAYRLKFAFADAPNHYKK | soluble |
| MFTSKPAFKIKNKASKSYRNTAVSKKLKEKRLAEHVRPSCFNIIRPLKKDIQIPVPSSRFLNKIQIHRIASGSQNTQFRQFNKTSIKSSKKYLNSFMAFRAYYSQFGSGVKQNVLSSLLAEEWHADKMQHGIWDYFAQQYNFINPGFGFVEWLTNNYAEVRGDGYWEDVFVHLAL | not soluble |
| GSGKNLIMIQVEALQGFVVNKSINGKEITPNLNKWINKSLYFDNYFYQVAQGNTSDAEFMSLNSLYPAQSGAAYYTYAGNTFNSIPKDLGDKGYYTAALHGYNEGFWNRNVMYKSEKFDDFYGQTSYKNDEVVGMGLSDESFLNQSLAKMKTFKQPYFSFLITLSSHYPFNDTAGYEKYTMNKLDVGEYKDTLLGNYFEGIHYTDEQLGKFLDKLDKEGLTKNSIIVLYGDHFAIPKENINQLYSFEGIKDPTDLTWYEYQKVPMFIHFPDDEHKGVNHTYSGQMDIYPTIANLYNISNNYMFGEDILNVKDGDSTNVTFRNGSFTDGK | not soluble |
| MTKKRVALIFGGNSSEHDVSKRSAQNFYNAIEATGKYEIIVFAIAQNGFFLDTESSKKILALEDEQPIVDAFMKTVDASDPLARIHALKSAGDFDIFFPVVHGNLGEDGTLQGLFKLLDKPYVGAPLRGHAVSFDKALTKELLTVNGIRNTKYIVVDPESANNWSWDKIVAELGNIVFVKAANQGSSVGISRVTNAEEYTEALSDSFQYDYKVLIEEAVNGARELEVGVIGNDQPLVSEIGAHTVPNQGSGDGWYDYNNKFVDNSAVHFQIPAQLSPEVTKEVKQMALDAYKVLNLRGEARMDFLLDENNVPYLGEPNTLPGFTNMSLFKRLWDYSDINNAKLVDMLIDYGFEDFAQNKKLSYSFVSLGEEKIGKFN | soluble |
| MGSSHHHHHHSSGLVPRGSKKKKEMPFPNKKIELGDKLSESIRSFSTITDTEIIIGICRKNIPGWKEINESYIEVKQIFSGLTNQLFVVSIVNESMSLSLKHPRILFRIYGKHVGKFYDSKVELDVFRYLSNINIAPNIIADFPEGRIEEFIDGEPLTTKQLQLTHICVEVAKNMGSLHIINSKRADFPSRFDKEPILFKRIYLWREEAKIQVSKNNFQIDKELYSKILEEIDQLEELIMGGEKFSMERALELKLYSPAFSLVFAHNDLQENNLLQTQNNIRMIDYEYSAINFAGADIANYFCEYIYDYCSEKQPYFKFKYEDYPCEELRKLFISVYLSQTLQEQVMPSQQIVHIMTKAVEVFTLISHITWGLWSIARTPGYQPNSVEFDFTEYANTRFTHYLQKKKELIDQGILPLNSWLFNL | soluble |
| MAKIALIGASGNAGSRILKELSDRGHQVTAIARNPEKIAALPNVVAKKGDVFDQAALSELLKGHDAVISSVHFTASDPATLIEAVRASGVQRYLVVGGAGSLEIAPGQRVVDLPDFPAAYKAEATKGAEFLDKLKQEKQLDWTFLSPSAEFVPGERTGKFRIGKDNLLSNEQGSRISFEDYAIALADEIEKPQHSRQRFTVGY | not soluble |
| MFNKILVVCVGNVCRSPTAERLLKRFHPSLTVASAGLGALVGKGADPAAASVASAHDLSLENHCARQISARLCREYDLILTMEKRHIAALCDIAPEMRGKVMLFGHWDSEREIPDPYRKSRDAFEAVYTLLERSARQWAQALNAEQGKP | not soluble |
| MAYAYLFKYIIIGDTGVGKSCLLLQFTDKRFQPVHDLTIGVEFGARMITIDGKQIKLQIWDTAGQESFRSITRSYYRGAAGALLVYDITRRDTFNHLTTWLEDARQHSNSNMVIMLIGNKSDLESRREVKKEEGEAFAREHGLIFMETSAKTASNVEEAFINTAKEIYEKIQEGVFDINNEANGIKIGPQHAATNASHGSNQGGQQAGGGCC | soluble |
| MSLAKVLYITAHPFNELVSNSMAAGKAFIETYQQQHPDDEVKHIDLFETYIPVIDKDVLTGWGKMSNGETLTDDEQMKVSRLSDILEEFLSADKYVFVTPMWNLSFPPVVKAYIDAISIAGKTFKYSAEGPQGLLTDKKVLHIQSRGGYYTEGPAADFEMGDRYLRTIMTFLGVPSYETIIIEGHNAEPHKTEEIKATSINNAEKLATTFEGGSHHHHHH | soluble |
| MFSDYHVHSSFSFDSEESPRAIVEKAIALGMKQICFTDHQDFNWPIKGESPYIDFPKYFEVLNSLRNEYSSKINILKGVELGLTSDNFSLCHKFLDSYDFDFVIGSCHIVDQMDPYYAEFWKGKNDRDCFELYFKTLLDSLKFFIGRNTCTTPRTVNTLGHLDYIVRYSPNKDNNYSVADYIDVIDEILKMIIENDIKLEINTSNFSKGFDFPNPHTDIIRRYKELGGLYVTVGSDAHKAQFIGSGFDLVEKIVEKYKLKVFTI | not soluble |
| MAHHHHHHMMLRSHVGYDDLQNGGSDQPVSFLRSAAGRTYLADGSSALSSAQLTAAQKLLPLTDRSSQAALDAARLEPPIEHASVMYHGCQQAVLNAELREKVEAHYKHWSSRVEELQALLSDLPTESALHSTRAVENLHSYLGAYRCTEDMLVTPSEVVEQHALRTPVPEIDVMFQMPAIPMDTMRRALDDLLRSPYLLAPLDTHLAHLSLLDKLGQLSWSGEGEVTAPLSKKPRGKRAVARKDCTVDESNETGVVLQAEEAAAEEDIYPSRAAVAMHERLHYNPGDYAQRELKKSEEALRELQDRMQTAKRQKEEAIDAADPLTALRNLHAQVDFSNDLLLLYRARMALVSLHSDDTRDFRRDVVDLIDDSHQSVQAVHRYAREALPSVQHDVRAMTEVIRQTQQRLIAMQATEAAADAGMRAHLCDMDKAARVLWEEVGALLEKIAENARERGRYAQKCMSLREQRAKEAAAVNAQLQAQSAHCERLCRCEEVLTRWNQAGDVFGKYMDACVPKLLKHLAAVEESDADLAQREAEGYVGCYEQFVYAAEEARAKRCTQADRMRLLQRSTLLNQERASDTMDPDAPAHAQRLDDVSRELDEVQLYLKYLSDMEADRKAEVDPVLRGVLARQTQAQLVTTGEEGEAEKPLPTPGLLEDAPAASTADAKPSLASPSTAAETTKSTSAVPATAAGDGAVVAATTTATTTAPPSLSVTVAHPFVTARLIGLAHESDYISQQGQLLGQEMQAVEAKWTGLRHSRKELQAMEEKYKNGDDIRALLGVEKL | soluble |
| MDRDELVRYLDAYLRIQDFPQDPSLNGLQVEGKRTVRKVGAAVDAGEAIFRKALEEEVDFLIVHHGLFWGKPFPIVGHHKRRLETLFQGGINLYAAHLPLDAHEEVGNNFVLARELGLVDLTPWDVGVKGRFPQPTPLLQVADRLGQLTGMQPLVHQGGLDHVETVILVSGSGTGLLPKVDADLFVTGEPKHSVFHETFERGLNVIYAGHYDTETFGVKALAAHLEARFGLPWVFLDHPTGL | soluble |
| SLQGKPTISVPEFKNDTNMSWWWWSGNTSRELADALSNELTSTGNFQVVERQNLGSVLSEQELAELGLTRPETSAQRGQLTGAQYIVLGRVTAYEEGVSSESGGNNFGLNLGLFSIGNSERQAKQEAYVAIDLRVVDSSTGEVVYARTVEGRATDTAASSANNVNILGIVNTGQDNQSTSRAPVGKALRAGLVEITDYLSCVMVEQDNCIQEYQDKDRQRRQKTKDTLILE | soluble |
| MPAKSSSRTSATSSRRTILRLKVIPWERIISPFPSERGGSMSSLGIDIGGANLKVASKDGWEIIYFPMWREAERLEGKLREIAEKYSTAKAGVVMTAELADFFKSRAEGVEFIAKACKKAFEDVRFLDVEGNLKSDIDNPENFAASNWVASCRFLLEEAYRNFLFVDMGSTTTDIIPVTSKIEAAKTDFERLKRGELIYFGVLRTPVFYVLKEFEGAPLCPEFFAITADVFVTTGDIKEEDYSCDTPDGKGRSREECMRRLARTVCSDLEELGEEKVKELALEAKWAMIDRLSEVIEHKSKIYGLKTVFACGIGEFLIAEACEEAGAECRLISELYGDYSKLFPAYAMLKLVEQHLEHHHHHH | not soluble |
| MSLSENLIIFNAKVVTPLGFSARKGKEMAELRILEKATVEVVDGIITYVGPNRGEVRDGYYHHFWHYNARGKCLLPGFVDSHTHFVFGGERAEEFSWRLKGESYMSIMQRGGGIASTVQATRELSFIHLRSKAEGLLKKMTAMGITTVEGKSGYGLNRETELLQLKVMRSLNKDEGVRVDIVPTFLGAHALPDEYKERPDDYIDFLIRELLPVIQRDSLAEFCDVFCEEGVFSIEQSRRLLTAAGDYGLLPKLHADEIVPLGGAELAAELGAVSADHLLHASDAGIEAMARKGVVATLLPLTAFALKEPYARGRDMIDAGCAVALATDLNPGSCFSGSIPLTFALACIHMQLTVEEAITALTLNGAAALNRADSIGSIEVGKKGDFVVLDSDNYHILPYYVGMNCVNTTIKGGMLYPSEGHHHHHH | soluble |
| MERIETIPTDKEHLSQDEVIRLASTPCSAPALKRAFLFSCLTALRKSDIKKLTWEEIQPYGSDGVMYVTTRMQKTKDIVHNPISEEALELIGYSPDKRGKVFPDFKDSMTQAPLKNWLKDAGITKHISYHCSRHSFACLQLDAGTSIAVVQRYLGHKNVATTEVYAKISDAQKRASVGLEHHHHHH | soluble |
| MGSDKIHHHHHHMKNNLNNILEDSLNYKIGETLDELKSIKKLDEIFSKRKDQLYREKDEGKKVYGRFCVFVPTEIICAADAIPVGLCGGKESTIPSAEEDLPRNICPLIKSSYGFKKDKACPYFEASDVIVGETTCDGKKKMFEHMAELSEMYVMHLPHFKDERSYELWLKEVYDFKDYVEKFTGNKITEEKLKEAIDEENEERMLSHKLYELRSQIPTPITGKDALKIFQRSFLLDIKDRLAILKEVISELEERVKNGEGYTGKRILVAGCPMVAGNTKIVDIIEEVGGLVVGEETCTGTRKFDNLVNGYTIDDLAERYFKINCASAFKNDSRIERIKELVKEQNADGVVYYTLQYCHTFNVEGALIEKELKNLGIPIIRIETDYSESDKEQIKTRLEAFVEMI | not soluble |
